Target: zebrafish P2X4 construct ΔP2X4-C (ΔN27/ΔC24/N78K/N187R) (zebrafish) (UniProt F8W463)
Assay: crystal structure; ΔP2X4-C (2 mg/ml) with 3 mM CTP; crystals grown at 4 °C by cross-seeding in 20-26% PEG 2000, 300 mM Mg(NO3)2, 100 mM Tris pH 8.0; 2.8 Å

- stoichiometry N: 3
Substance: zebrafish P2X4 construct ΔP2X4-C (ΔN27/ΔC24/N78K/N187R) (from UniProt F8W463 28-365) (receptor)
